These results are taken from patent publication KR20130126534A.

In the assay the target is TNF-α. The experiment in a line: ELISA, TNF-α coated 100 ng/well, protein titrated from 100 nM, anti-Human Fc-HRP. In general terms: ELISA stands for enzyme-linked immunosorbent assay.

The Kd is the constant that tells how readily two partners part at equilibrium. “TNFR2 (단독) (from UniProt P20333 23-252) (Fc fusion)” yielded a Kd of 0.068 nM.
